Data published in IntAct's records for PubMed 29892012.

B1: E3 ubiquitin-protein ligase LNX (Homo sapiens), Q8TBB1 (parent)
chain: MNQPESANDPEPLCAVCGQAHSLEENHFYSYPEEVDDDLICHICLQALLDPLDTPCGHTYCTLCLTNFLVEKDFCPMDRKPLVLQHCKKSSILVNKLLNKLLVTCPFREHCTQVLQRCDLEHHFQTSCKGASHYGLTKDRKRRSQDGCPDGCASLTATAPSPEVSAAATISLMTDEPGLDNPAYVSSAEDGQPAISPVDSGRSNRTRARPFERSTIRSRSFKKINRALSVLRRTKSGSAVANHADQGRENSENTTAPEVFPRLYHLIPDGEITSIKINRVDPSESLSIRLVGGSETPLVHIIIQHIYRDGVIARDGRLLPGDIILKVNGMDISNVPHNYAVRLLRQPCQVLWLTVMREQKFRSRNNGQAPDAYRPRDDSFHVILNKSSPEEQLGIKLVRKVDEPGVFIFNVLDGGVAYRHGQLEENDRVLAINGHDLRYGSPESAAHLIQASERRVHLVVSRQVRQRSPDIFQEAGWNSNGSWSPGPGERSNTPKPLHPTITCHEKVVNIQKDPGESLGMTVAGGASHREWDLPIYVISVEPGGVISRDGRIKTGDILLNVDGVELTEVSRSEAVALLKRTSSSIVLKALEVKEYEPQEDCSSPAALDSNHNMAPPSDWSPSWVMWLELPRCLYNCKDIVLRRNTAGSLGFCIVGGYEEYNGNKPFFIKSIVEGTPAYNDGRIRCGDILLAVNGRSTSGMIHACLARLLKELKGRITLTIVSWPGTFL
partner: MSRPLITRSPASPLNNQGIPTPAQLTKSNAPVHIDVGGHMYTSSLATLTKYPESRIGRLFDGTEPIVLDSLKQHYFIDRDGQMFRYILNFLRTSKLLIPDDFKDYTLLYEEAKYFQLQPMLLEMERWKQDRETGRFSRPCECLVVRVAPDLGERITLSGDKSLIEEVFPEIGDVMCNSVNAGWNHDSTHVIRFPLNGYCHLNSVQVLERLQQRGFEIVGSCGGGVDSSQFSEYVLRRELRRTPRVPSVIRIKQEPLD
B2: Coiled-coil domain-containing protein 158 (Homo sapiens), Q5M9N0 (parent)
chain: MESKAWESNNEDLLSSSGVTSNGGSSSSFFVSSIRGTIIENTSSAGTLTQVPFFPKYEVELDSPRKIIPSPGKEHFERVLEEYSHQVKDLQRRLNESNELHEKQKFYLRQSVIDLQTKLQEMQMERDAMADIRRRESQSQEDLRNQLQNTVHELEAAKCLKEDMLKDSNTQIEQLRKMMLSHEGVLQEIRSILVDFEEASGKKICEHDSMSTLHFRSLGSAISKILRELDTEISYLKGRIFPVEDQLEALKSESQNKIELLLQQHQDRIEQLISEHEVEITGLTEKASSARSQANSIQSQMEIIQEQARNQNSMYMRQLSDLESTVSQLRSELREAKRMYEDKTEELEKQLVLANSELTEARTERDQFSQESGNLDDQLQKLLADLHKREKELSLEKEQNKRLWDRDTGNSITIDHLRRELDNRNMEVQRLEALLKALKSECQGQMERQMAAIQGKNESLEKVSSLTAQLESTKEMLRKVVEELTAKKMTLESSERTISDLTTSLQEKERAIEATNAEITKLRSRVDLKLQELQHLKNEGDHLRNVQTECEALKLQMTEKDKVIEILRQQIENMTQLVGQHGRTAGAMQVEKAQLEKEINDRRMELKELKILKDKKDAKIRELEARVSDLELEKVKLVNAGSERLRAVKDIKQERDQLLNEVKTSRSELNNLSEEYEVLKRNFRNKSEEMEMTTNKLKMQLKSAQSELEQTRNTLKSMEGSDGHAMKVAMGMQKQITAKRGQIDALQSKIQFLEEAMTNANKEKHFLKEEKSKLSQELSTVATEKNKMAGELEVLRSQERRLKEKVTNMEVALDKASLQFAECQDIIQRQEQESVRLKLQHTLDIKELQGPGYTSNSSLKPRLLQPASVTRSHSNVPSSQSTASFLSHHSTKANTLKEDPTRDLKQLLQELRSVINEEPAVSLSKTEEDGRTSLGALEDRVRDCITESSLRSDMCHRSNNSLRDSTEGSKSSETLSREPVTLHAGDREDPSGCFTFTSAASPSVKNSASRSFNSSPKKSPVHSLLTSSVEGSIGSTSQYRSAKPIHSSDSVKDSQSPPIETTGKTCRKLQNRLESLQTLVEDLQLKNQAMSSMIRNQEKRIQKVKDQEKMLLK
partner: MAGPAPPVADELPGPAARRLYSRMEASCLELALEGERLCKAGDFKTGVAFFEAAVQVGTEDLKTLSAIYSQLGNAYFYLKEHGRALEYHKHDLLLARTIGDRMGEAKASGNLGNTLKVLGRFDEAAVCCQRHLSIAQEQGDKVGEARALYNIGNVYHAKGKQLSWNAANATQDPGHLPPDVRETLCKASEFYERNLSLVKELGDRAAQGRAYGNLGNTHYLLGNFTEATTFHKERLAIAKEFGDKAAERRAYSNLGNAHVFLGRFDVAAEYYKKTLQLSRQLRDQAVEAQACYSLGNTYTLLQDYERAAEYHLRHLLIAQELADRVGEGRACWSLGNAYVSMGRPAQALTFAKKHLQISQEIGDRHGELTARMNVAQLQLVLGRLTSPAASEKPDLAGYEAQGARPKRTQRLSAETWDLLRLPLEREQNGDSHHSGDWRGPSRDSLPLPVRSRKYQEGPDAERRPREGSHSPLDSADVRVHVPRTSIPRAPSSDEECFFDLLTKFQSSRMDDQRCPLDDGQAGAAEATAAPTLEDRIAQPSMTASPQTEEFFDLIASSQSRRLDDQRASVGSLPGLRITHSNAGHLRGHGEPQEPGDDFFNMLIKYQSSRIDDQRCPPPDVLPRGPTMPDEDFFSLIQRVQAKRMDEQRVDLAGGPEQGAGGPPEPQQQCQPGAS
B3: E3 ubiquitin-protein ligase LNX (Homo sapiens), Q8TBB1 (parent)
chain: B1 chain
partner: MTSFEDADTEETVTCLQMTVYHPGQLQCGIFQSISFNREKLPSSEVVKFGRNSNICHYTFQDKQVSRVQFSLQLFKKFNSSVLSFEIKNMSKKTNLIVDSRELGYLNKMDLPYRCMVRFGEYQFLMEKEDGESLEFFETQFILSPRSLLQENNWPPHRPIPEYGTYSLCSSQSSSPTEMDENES
B4: Centrosomal protein POC5 (Homo sapiens), Q8NA72 (parent)
chain: MSSDEEKYSLPVVQNDSSRGSSVSSNLQEEYEELLHYAIVTPNIEPCASQSSHPKGELVPDVRISTIHDILHSQGNNSEVRETAIEVGKGCDFHISSHSKTDESSPVLSPRKPSHPVMDFFSSHLLADSSSPATNSSHTDAHEILVSDFLVSDENLQKMENVLDLWSSGLKTNIISELSKWRLNFIDWHRMEMRKEKEKHAAHLKQLCNQINELKELQKTFEISIGRKDEVISSLSHAIGKQKEKIELMRTFFHWRIGHVRARQDVYEGKLADQYYQRTLLKKVWKVWRSVVQKQWKDVVERACQARAEEVCIQISNDYEAKVAMLSGALENAKAEIQRMQHEKEHFEDSMKKAFMRGVCALNLEAMTIFQNRNDAGIDSTNNKKEEYGPGVQGKEHSAHLDPSAPPMPLPVTSPLLPSPPAAVGGASATAVPSAASMTSTRAASASSVHVPVSALGAGSAATAASEEMYVPRVVTSAQQKAGRTITARITGRCDFASKNRISSSLAIMGVSPPMSSVVVEKHHPVTVQTIPQATAAKYPRTIHPESSTSASRSLGTRSAHTQSLTSVHSIKVVD
B5: E3 ubiquitin-protein ligase LNX (Homo sapiens), Q8TBB1 (parent)
chain: B1 chain
partner: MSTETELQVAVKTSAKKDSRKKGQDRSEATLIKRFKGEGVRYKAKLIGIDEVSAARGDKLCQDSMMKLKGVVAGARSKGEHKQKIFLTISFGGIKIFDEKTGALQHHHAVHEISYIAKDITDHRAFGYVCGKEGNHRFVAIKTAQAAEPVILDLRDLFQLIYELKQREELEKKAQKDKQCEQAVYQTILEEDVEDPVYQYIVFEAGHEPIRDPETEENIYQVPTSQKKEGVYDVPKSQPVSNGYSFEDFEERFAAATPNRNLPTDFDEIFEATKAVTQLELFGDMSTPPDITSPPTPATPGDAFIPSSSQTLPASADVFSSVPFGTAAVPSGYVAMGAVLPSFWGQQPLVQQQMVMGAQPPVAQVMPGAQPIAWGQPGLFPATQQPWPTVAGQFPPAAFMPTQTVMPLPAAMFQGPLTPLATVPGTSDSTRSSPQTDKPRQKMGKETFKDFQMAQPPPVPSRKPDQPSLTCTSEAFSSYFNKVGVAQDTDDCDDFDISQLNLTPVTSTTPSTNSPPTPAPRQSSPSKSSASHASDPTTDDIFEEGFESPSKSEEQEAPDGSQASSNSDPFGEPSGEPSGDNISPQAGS

Variants of: B1
Conditions: with kctd1_human KCTD1, Q719H9

Row | Variant | effect of a mutation on the interaction
1 | E295K | disrupting interaction strength

Variants of: B2
Conditions: with gpsm1_human GPSM1, Q86YR5

Row | Variant | effect of a mutation on the interaction
2 | R78H | with no effect

Variants of: B3
Conditions: with tifa_human TIFA

Row | Variant | effect of a mutation on the interaction
3 | E295K | disrupting interaction strength

Variants of: B4
Conditions: with cetn1_human CETN1, Q12798
Sequence of cetn1_human CETN1, Q12798 (Q12798 whole entry): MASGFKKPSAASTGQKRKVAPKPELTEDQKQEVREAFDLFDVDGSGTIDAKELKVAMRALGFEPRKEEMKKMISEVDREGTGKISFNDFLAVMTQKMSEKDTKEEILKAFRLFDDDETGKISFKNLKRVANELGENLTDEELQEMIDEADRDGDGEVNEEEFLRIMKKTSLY

Row | Variant | effect of a mutation on the interaction
4 | MSSDEEKYSLPVVQNDSSRGSSVSSNLQEEYEELLHYAIVTPNIEPCASQSSHPKGELVPDVRISTIHDILHSQGNNSEVRETAIEVGKGCDFHISSHSKTDESSPVLSPRKPSHPVMDFFSSHLLADSSSPATNSSHTDAHEILVSDFLVSDENLQKMENVLDLWSSGLKTNIISELSKWRLNFIDWHRMEMRKEKEKHAAHLKQLCNQINELKELQKTFEISIGRKDEVISSLSHAIGKQKEKIELMRTFFHWRIGHVRARQDVYEGKLADQYYQRTLLKKVWKVWRSVVQKQWKDVVERACQARAEEVCIQISNDYEAKVAMLSGALENAKAEIQRMQHEKEHFEDSMKKAFMRGVCALNLEAMTIFQNRNDAGIDSTNNKKEEYGPGVQGKEHSAHLDPSAPPMPLPVTSPLLPSPPAAVGGASATAVPSAASMTSTRAASASSVHVPVSALGAGSAATAASEETYVPRVVTSAQQKAGRTITARITGRCDFASKNRISSSLAIMGVSPPMSSVVVEKHHPVTVQTIPQATAAKYPRTIHPESSTSASRSLGTRSAHTQSLTSVHSIKVVD [M469T] | with no effect

Variants of: B4
Conditions: with cetn2_human CETN2, P41208
Sequence of cetn2_human CETN2, P41208 (P41208 whole entry): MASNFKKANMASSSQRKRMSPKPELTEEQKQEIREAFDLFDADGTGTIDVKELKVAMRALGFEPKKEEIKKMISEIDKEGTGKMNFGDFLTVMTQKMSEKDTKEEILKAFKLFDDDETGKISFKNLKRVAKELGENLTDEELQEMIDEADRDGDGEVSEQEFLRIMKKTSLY

Row | Variant | effect of a mutation on the interaction
5 | MSSDEEKYSLPVVQNDSSRGSSVSSNLQEEYEELLHYAIVTPNIEPCASQSSHPKGELVPDVRISTIHDILHSQGNNSEVRETAIEVGKGCDFHISSHSKTDESSPVLSPRKPSHPVMDFFSSHLLADSSSPATNSSHTDAHEILVSDFLVSDENLQKMENVLDLWSSGLKTNIISELSKWRLNFIDWHRMEMRKEKEKHAAHLKQLCNQINELKELQKTFEISIGRKDEVISSLSHAIGKQKEKIELMRTFFHWRIGHVRARQDVYEGKLADQYYQRTLLKKVWKVWRSVVQKQWKDVVERACQARAEEVCIQISNDYEAKVAMLSGALENAKAEIQRMQHEKEHFEDSMKKAFMRGVCALNLEAMTIFQNRNDAGIDSTNNKKEEYGPGVQGKEHSAHLDPSAPPMPLPVTSPLLPSPPAAVGGASATAVPSAASMTSTRAASASSVHVPVSALGAGSAATAASEETYVPRVVTSAQQKAGRTITARITGRCDFASKNRISSSLAIMGVSPPMSSVVVEKHHPVTVQTIPQATAAKYPRTIHPESSTSASRSLGTRSAHTQSLTSVHSIKVVD [M469T] | with no effect

Variants of: B5
Conditions: with dab1_human DAB1, O75553

Row | Variant | effect of a mutation on the interaction
6 | E295K | disrupting interaction strength
